Source: US20110195021A1 (IMMUNOGEN, published 2011)
Positions count from the first letter of the chain named. Where two headings read alike, the source gives them in different places.

Legend:
human CD20 (human) [1] = target: human CD20 (human) (UniProt P11836); assay: flow cytometry on SU-DHL-4 cells
human CD20 (human) [2] = target: human CD20 (human) (UniProt P11836); assay: cell-based or functional assay
human CD20 [3] = target: T1, human CD20 (human, UniProt P11836 1-297); assay: flow cytometry on 300-19 cells transfected with wild type human CD20
T1 construct: whole, on cells; also called wild type CD20; MS4A1
T1 sequence (looked up): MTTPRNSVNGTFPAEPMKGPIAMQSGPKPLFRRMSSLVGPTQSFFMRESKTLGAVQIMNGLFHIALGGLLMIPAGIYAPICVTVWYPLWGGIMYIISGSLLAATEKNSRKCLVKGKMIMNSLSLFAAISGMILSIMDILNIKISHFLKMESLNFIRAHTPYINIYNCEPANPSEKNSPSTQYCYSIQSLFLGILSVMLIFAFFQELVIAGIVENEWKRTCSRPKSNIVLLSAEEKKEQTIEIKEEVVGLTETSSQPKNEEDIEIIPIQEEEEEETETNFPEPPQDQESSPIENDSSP

human CD20 [4] = target: T1, human CD20; assay: as above; remark: listed apart in the source
CD20-A170S P172S variant = target: T2, CD20-A170S P172S variant (human, UniProt P11836 1-297); assay: flow cytometry on 300-19 cells transfected with human CD20 A170S P172S
T2 construct: Stably expressed on 300-19 cells; also called CD20-AP; CD20AP
T2 chain: T1 sequence (looked up) with A170S, P172S

CD20 N163D = target: T3, CD20 N163D (human, UniProt P11836 1-297); assay: flow cytometry on 300-19 cells transfected with human CD20 N163D
T3 construct: whole, on cells; Stably expressed on 300-19 cells
T3 sequence (looked up): T1 sequence (looked up) with N163D

human CD20 [5] = target: T1, human CD20; assay: flow cytometry on 300-19 cells transfected with wild type human CD20; remark: listed apart in the source
human CD20 [6] = target: T1, human CD20; assay: flow cytometry on BJAB cells, apparent dissociation constant from the MFI dose-response curve; muCD20-6 on BJAB cells
Protocol: (§1) Binding specificity was tested by flow cytometry using purified antibodies. […] Then, the cells were pelleted, washed, and incubated for 1 h with 100 μL of FITC-conjugated goat anti-mouse IgG-antibody (such as is obtainable from, for example Jackson Laboratory, 6 μg/mL in FACS buffer). The cells were pelleted again, washed with FACS buffer and resuspended in 200 μL of PBS containing 1% formaldehyde. Samples were acquired using a FACSCalibur flow cytometer with the HTS multiwell sampler or a FACS array flow cytometer and analyzed using CellQuest Pro (all from BD Biosciences, San Diego, US).
(§2) Data analysis was performed using CellQuest Pro (BD Biosciences, San Diego, US) and for each sample the mean fluorescence intensity for FL1 (MFI) was exported and plotted against the antibody concentration in a semi-log plot.

human CD20 [7] = target: T1, human CD20; assay: flow cytometry on BJAB cells, apparent dissociation constant from the MFI dose-response curve; muCD20-7 on BJAB cells
Protocol: as §1, §2

CD20 N163D N166D = target: T4, CD20 N163D N166D (human, UniProt P11836 1-297); assay: flow cytometry on 300-19 cells transfected with human CD20 N163D N166D
T4 construct: whole, on cells; Stably expressed on 300-19 cells; also called CD20-NNDD
T4 sequence (looked up): T1 sequence (looked up) with N163D, N166D

human CD20 [8] = target: T1, human CD20; assay: flow cytometry on BJAB cells, apparent Kd
Protocol: as §1, §2
The value for the apparent dissociation constant (Kd) of each antibody was calculated using GraphPad Prism v4 (GraphPad software, San Diego, Calif.).

In the case of rituximab-SMCC-[^3H]DM1 (antibody), the EC50 (read off the curve) (human CD20 (human) [1]) is reported as 1 nM and the IC50, cell-based viability assay, CD20-positive SU-DHL-4 cells (human CD20 (human) [2]) is reported as 0.24 nM.

B1 (antibody) gave an EC50 (read off the curve) (human CD20 [3]) of 0.4 nM.

B1: rituximab (antibody, V domains shown)
VH: QVQLQQPGAELVKPGASVKMSCKASGYTFTSYNMHWVKQTPGRGLEWIGAIYPGNGDTSYNQKFKGKATLTADKSSSTAYMQLSSLTSEDSAVYYCARSTYYGGDWYFNVWGAGTTVTVSA
VL: QIVLSQSPAILSASPGEKVTMTCRASSSVSYIHWFQQKPGSSPKPWIYATSNLASGVPVRFSGSGSGTSYSLTISRVEAEDAATYYCQQWTSNPPTFGGGTKLEIK
In the case of B1, the “EC50 (read off the curve)” value (human CD20 [4]) is reported as about 0.5 nM.

B2: muCD20-6 (antibody, mouse IgG1, kappa, V domains shown)
VH: QIQLVQSGPELKKPGETVKISCKASGYKFTNVGMNWVKQVPGKGLKWMGWINTYTGEPAYADDFKGRFVFSLETSASAAFLQINNLKNEDTATYFCARGAYYRYDLGMDYWGQGTSVTVSS
VL: DIVLTQSPASLAVSLGQRAIISCRASESVDNFGNSFMHWYQQKPGQPPTLLIYRASNLESGIPARFSGSGSRTDFTLTVNPVEADDIATYYCQQSYEDPFTFGAGTKLELKR
notes: Murine monoclonal antibody purified from hybridoma (ATCC PTA-10486); also called murine CD20-6
B2 was tested, and the binding result (CD20-A170S P172S variant) was “binds”, the binding result (CD20 N163D) was “no binding (tested: 10^-7.5 M (about 3x10^-8 M))” and the “EC50 (read off the curve)” value (human CD20 [5]) was about 0.8 nM. The Kd (human CD20 [6]) was 0.4 nM.

B3: muCD20-7 (antibody, mouse IgG1, kappa, V domains shown)
VH: B2 VH with I2L, K28S, V32Y, V40A, A59S, V69A, A78T, F80Y, N84S
VL: B2 VL with I20T, E27G, N31S, T49K, I62V, S69G, V79I, Y91F, K111M
notes: Murine monoclonal antibody purified from hybridoma (ATCC PTA-10487); also called murine CD20-7
B3 was tested, and the Kd (human CD20 [7]) was 0.3 nM, the binding result (CD20-A170S P172S variant) was “binds” and the binding result (CD20 N163D N166D) was “no binding (tested: 10^-7.5 M (about 3x10^-8 M))”. The binding result (CD20 N163D) was “no binding (tested: 10^-7.5 M (about 3x10^-8 M))”, the “EC50 (read off the curve)” value (human CD20 [5]) was about 0.5 nM and the Kd (human CD20 [8]) was 0.4 nM.

B4: chCD20-7 (antibody, V domains shown)
VH: B2 VH with I2L, K28S, V32Y, V40A, A59S, V69A, A78T, F80Y, N84S
VL: B2 VL with I20T, E27G, N31S, T49K, I62V, S69G, V79I, Y91F, K111M
notes: Chimeric antibody: CD20-7 variable regions cloned into pchCD20-7HCN and pchCD20-7LCZ and expressed in HEK-293T cells; also called chimeric CD20-7
B4 was tested, and the Kd (human CD20 [8]) was 0.5 nM.
